Measurements from patent publication US20210115143A1 (R PHARM OVERSEAS, published 2021).
Several values for one entry are separate records, joined by “and”; a condition that tells them apart may be missing. Equal entries are not always repeated. One block for each binder: values may come before it.

Key:
[1] = target: hPD-L1 as used in the binding and blocking tests of Example 4 (human, UniProt Q9NZQ7 19-238, limits assumed); experiment: competition with PD-1 for PD-L1, scFv-Fc (FIG. 3)
[2] = target: human PD-L1 on primary human cells in the dendritic cell / CD4+ T cell mixed lymphocyte reaction (human, UniProt Q9NZQ7 19-290); experiment: cell-based or functional assay
human PD-L1 on primary human cells in the dendritic cell / CD4+ T cell mixed lymphocyte reaction, sequence (Q9NZQ7 19-290): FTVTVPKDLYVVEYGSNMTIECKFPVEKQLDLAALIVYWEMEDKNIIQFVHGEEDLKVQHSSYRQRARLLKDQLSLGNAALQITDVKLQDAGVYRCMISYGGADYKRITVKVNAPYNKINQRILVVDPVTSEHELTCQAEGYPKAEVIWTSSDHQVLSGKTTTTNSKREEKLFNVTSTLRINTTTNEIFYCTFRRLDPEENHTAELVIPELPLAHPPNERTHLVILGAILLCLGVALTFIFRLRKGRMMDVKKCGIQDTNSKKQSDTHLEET

hPD-L1 as used in the binding and blocking tests of Example 4, sequence (Q9NZQ7 19-238 limits assumed): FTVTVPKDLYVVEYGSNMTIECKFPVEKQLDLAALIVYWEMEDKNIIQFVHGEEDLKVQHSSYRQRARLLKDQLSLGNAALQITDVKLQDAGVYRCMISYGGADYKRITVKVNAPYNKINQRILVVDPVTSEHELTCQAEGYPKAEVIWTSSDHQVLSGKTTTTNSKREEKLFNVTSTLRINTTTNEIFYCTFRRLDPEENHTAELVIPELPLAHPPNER

- IC50 [1]: 0.837 µg/mL
B1: BII61-62 anti-hPD-L1 scFv fused to IgG1-Fc (affinity matured) (Fc fusion)
scFv: QVQLQQSGPGLVKPSQTLSLTCAISGDSVSSNSASWNWIRQSPSRGLEWLGRTYYRSKWYDDYAVSVKGRISINPDTSKNQFSLQLNSVTPEDTAVYYCARSQGRYFVNYGMDVWGQGTTVTVSSGGGGSGGGGSGGGGSDIRLTQSPSSLSASVGDRITITCRASQSISSYLNWYQQKPGKAPKLLVYGASSLQSGVPSRFSGSGSGTDFTLTISSLQPEDVATYYCQQSYFTPRGITFGPGTKVDIK
notes: not shown: human immunoglobulin gamma1 (IgG1) constant region, UniProt P01857, residues 104-330 (IgG1-Fc)

- IC50 [1]: 1.14 µg/mL
B2: B60-55 anti-hPD-L1 scFv fused to IgG1-Fc (affinity matured) (Fc fusion)
scFv: QVQLVQSGAEVKKPASSVKVSCTASGGSFSTYAISWVRQAPGQGLEWMGGIIPIFGTTKYAQRFQGRVTITADESTTTAYMELSSLISDDTALYYCTTSRGFNYGWFDYWGQGTLVTVSSGGGGSGGGGSGGGGSEIVMTQSPATLSLSPGERATLSCRASQSVGIHLAWYQQKLGQAPRLLIYGASSRATGIPDRFSGSGSGTDFTLTISRLEPEDFAVYYCQQYGSLPRTFGQGTKVEIK
notes: as for B1

- EC50 of IFN-γ secretion by CD4+ T cells in a dendritic cell-T cell mixed lymphocyte reaction [2]: 0.189 µg/ml and 1.2 nM
B3: B60-55 mAb (anti-hPD-L1, human IgG1, kappa) (antibody, V domains shown)
VH: QVQLVQSGAEVKKPASSVKVSCTASGGSFSTYAISWVRQAPGQGLEWMGGIIPIFGTTKYAQRFQGRVTITADESTTTAYMELSSLISDDTALYYCTTSRGFNYGWFDYWGQGTLVTVSS
VL: EIVMTQSPATLSLSPGERATLSCRASQSVGIHLAWYQQKLGQAPRLLIYGASSRATGIPDRFSGSGSGTDFTLTISRLEPEDFAVYYCQQYGSLPRTFGQGTKVEIK

- EC50 of IFN-γ secretion by CD4+ T cells in a dendritic cell-T cell mixed lymphocyte reaction [2]: 0.078 µg/ml and 0.5 nM
B4: BII61-62 mAb (anti-hPD-L1, human IgG1, kappa) (antibody, V domains shown)
VH: QVQLQQSGPGLVKPSQTLSLTCAISGDSVSSNSASWNWIRQSPSRGLEWLGRTYYRSKWYDDYAVSVKGRISINPDTSKNQFSLQLNSVTPEDTAVYYCARSQGRYFVNYGMDVWGQGTTVTVSS
VL: DIRLTQSPSSLSASVGDRITITCRASQSISSYLNWYQQKPGKAPKLLVYGASSLQSGVPSRFSGSGSGTDFTLTISSLQPEDVATYYCQQSYFTPRGITFGPGTKVDIK
